Source: publication PMC7024214

Molecular target: elastase (UniProt P00772)

inhibition of the activity of elastase (IC50)	Substance
4 nM	tutuilamide A (peptide)
3.6 nM	tutuilamide B (peptide)
